Source: publication PMC4148960, “Sox2 acts as a transcriptional repressor in neural stem cells” (BMC Neuroscience, 2014)

Biological target: T1, GST-fused Grg1 (UniProt Q62440 1-770)
T1 construct: Grg1 (groucho-related gene 1); cloned into pGEX4T1; No purification before mixing with Sox2 is described; the fusion was collected on glutathione-sepharose after the incubation; also called GST-Grg1; source: E. coli BL21, induced with IPTG, bacteria lysed
Assay: pull-down; data not shown: amounts of radiolabelled Sox2 pulled down by GST-Grg1 and GST-Grg5 compared
Conditions: partners not purified

T1 sequence (Q62440 whole entry, the tested form may be a part): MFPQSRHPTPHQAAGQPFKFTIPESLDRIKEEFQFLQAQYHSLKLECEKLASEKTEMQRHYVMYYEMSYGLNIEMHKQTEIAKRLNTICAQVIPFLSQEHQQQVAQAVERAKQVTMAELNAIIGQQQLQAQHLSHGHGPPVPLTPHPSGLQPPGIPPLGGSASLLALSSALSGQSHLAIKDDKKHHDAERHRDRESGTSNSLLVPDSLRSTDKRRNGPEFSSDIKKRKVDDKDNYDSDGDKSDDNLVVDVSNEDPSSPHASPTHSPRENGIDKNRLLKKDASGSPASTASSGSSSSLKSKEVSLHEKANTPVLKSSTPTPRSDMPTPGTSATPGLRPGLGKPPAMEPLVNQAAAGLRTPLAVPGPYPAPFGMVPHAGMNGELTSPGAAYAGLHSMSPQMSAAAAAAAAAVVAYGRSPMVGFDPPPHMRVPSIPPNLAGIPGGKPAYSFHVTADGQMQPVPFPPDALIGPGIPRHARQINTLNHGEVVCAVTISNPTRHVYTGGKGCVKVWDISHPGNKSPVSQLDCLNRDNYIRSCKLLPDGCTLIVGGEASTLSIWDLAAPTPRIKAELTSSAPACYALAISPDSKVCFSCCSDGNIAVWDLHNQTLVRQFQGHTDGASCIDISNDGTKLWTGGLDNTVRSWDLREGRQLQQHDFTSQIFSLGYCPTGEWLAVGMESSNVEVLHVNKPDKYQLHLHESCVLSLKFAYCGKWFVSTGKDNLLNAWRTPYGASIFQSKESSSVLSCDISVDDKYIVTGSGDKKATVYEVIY

- fold more Sox2 pulled down than by Grg5: ~4 fold
B1: radiolabelled Sox2 (in vitro translated) (natural protein)
chain: not shown
modifications: S^35-labelled
notes: Sox2, wild type; also called S^35-labelled Sox2; WT Sox2; source: in vitro translated (TNT T7 kit, Promega)
